Test results reported in US10087225B2, “Formulation of MK2 inhibitor peptides” (MOERAE MATRIX, INC., priority 2015, dated 2018).

Experiments:
Experiment in all cases: Kinase Profiling Assay
Assay type in all cases: biochemical
Settings in all cases: for % activity: 100 μM
CK2(h) = CK2(h) (Homo sapiens, UniProt P68400)
DMPK(h) = biological target: T1, DMPK(h) (Homo sapiens, UniProt Q09013)
T1 sequence (Q09013 1-629): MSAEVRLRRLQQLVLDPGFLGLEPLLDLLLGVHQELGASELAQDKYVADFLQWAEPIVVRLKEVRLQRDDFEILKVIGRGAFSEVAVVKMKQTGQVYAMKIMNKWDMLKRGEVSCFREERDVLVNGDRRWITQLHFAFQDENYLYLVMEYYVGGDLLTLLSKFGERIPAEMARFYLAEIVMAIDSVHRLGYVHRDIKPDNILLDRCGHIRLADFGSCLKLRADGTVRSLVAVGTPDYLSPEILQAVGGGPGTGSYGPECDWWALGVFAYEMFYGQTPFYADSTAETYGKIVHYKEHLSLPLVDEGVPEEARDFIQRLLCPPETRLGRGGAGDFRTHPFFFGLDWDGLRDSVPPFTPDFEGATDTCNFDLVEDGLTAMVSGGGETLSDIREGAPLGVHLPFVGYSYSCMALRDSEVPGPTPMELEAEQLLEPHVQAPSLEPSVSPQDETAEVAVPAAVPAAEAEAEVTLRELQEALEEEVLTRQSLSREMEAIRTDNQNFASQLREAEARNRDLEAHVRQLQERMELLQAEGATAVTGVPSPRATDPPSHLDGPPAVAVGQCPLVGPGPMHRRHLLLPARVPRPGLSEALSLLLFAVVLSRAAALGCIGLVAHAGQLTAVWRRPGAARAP

EphA7(h) = EphA7(h) (Homo sapiens, UniProt Q15375)
FGFR3(h) = FGFR3(h) (Homo sapiens, UniProt P22607)
Fms(h) = Fms(h) (Homo sapiens, UniProt P07333)
GRK6(h) = GRK6(h) (Homo sapiens, UniProt P43250)
Haspin(h) = biological target: T2, Haspin(h) (Homo sapiens, UniProt Q8TF76)
T2 sequence (Q8TF76 1-798): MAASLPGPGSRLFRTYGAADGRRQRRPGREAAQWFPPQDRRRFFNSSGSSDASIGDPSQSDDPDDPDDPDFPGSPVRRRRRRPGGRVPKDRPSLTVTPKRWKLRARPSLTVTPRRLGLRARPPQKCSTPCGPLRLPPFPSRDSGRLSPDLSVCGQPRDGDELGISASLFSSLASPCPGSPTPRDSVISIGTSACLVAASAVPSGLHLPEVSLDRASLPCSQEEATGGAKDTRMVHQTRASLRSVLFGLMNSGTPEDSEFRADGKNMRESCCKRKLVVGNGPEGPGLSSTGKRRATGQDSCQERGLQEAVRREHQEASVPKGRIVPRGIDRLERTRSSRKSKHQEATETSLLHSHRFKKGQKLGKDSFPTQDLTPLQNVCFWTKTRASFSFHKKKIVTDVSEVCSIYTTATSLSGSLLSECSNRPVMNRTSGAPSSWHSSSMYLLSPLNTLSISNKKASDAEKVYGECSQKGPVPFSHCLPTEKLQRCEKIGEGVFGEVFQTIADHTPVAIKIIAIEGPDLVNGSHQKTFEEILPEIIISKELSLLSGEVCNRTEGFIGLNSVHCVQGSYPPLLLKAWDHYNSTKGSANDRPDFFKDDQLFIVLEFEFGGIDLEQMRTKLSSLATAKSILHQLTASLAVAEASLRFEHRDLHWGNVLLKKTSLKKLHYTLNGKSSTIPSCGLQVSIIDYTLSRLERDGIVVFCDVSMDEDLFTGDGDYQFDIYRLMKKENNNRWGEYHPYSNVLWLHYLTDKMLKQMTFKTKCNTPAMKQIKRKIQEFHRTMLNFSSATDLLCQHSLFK

IGF-1R(h), activated = IGF-1R(h), activated (Homo sapiens, UniProt P08069)
IRR(h) = IRR(h) (Homo sapiens, UniProt P14616)
MAPKAP-K3(h) = MAPKAP-K3(h) (Homo sapiens, UniProt Q16644)
Met(Y1248D)(h) = Met(Y1248D)(h) (Homo sapiens, UniProt P08581, Y1230D)
NEK3(h) = biological target: T3, NEK3(h) (Homo sapiens, UniProt P51956)
T3 sequence (P51956 1-506): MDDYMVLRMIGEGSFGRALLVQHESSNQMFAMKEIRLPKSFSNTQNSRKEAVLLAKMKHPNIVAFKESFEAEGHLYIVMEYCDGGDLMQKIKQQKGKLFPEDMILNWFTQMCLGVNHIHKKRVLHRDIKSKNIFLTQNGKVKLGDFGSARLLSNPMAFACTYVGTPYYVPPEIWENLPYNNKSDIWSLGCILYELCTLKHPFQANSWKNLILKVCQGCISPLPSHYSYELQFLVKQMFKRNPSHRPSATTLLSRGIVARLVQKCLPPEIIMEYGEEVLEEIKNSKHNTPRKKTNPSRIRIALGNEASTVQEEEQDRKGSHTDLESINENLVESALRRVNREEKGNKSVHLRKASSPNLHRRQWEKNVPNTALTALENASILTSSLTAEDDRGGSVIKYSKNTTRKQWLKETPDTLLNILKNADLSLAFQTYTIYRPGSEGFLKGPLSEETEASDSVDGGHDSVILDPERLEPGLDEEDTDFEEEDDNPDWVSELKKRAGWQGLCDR

PASK(h) = PASK(h) (Homo sapiens, UniProt Q96RG2)
STK33(h) = STK33(h) (Homo sapiens, UniProt Q9BYT3)
Chain of STK33(h) (Q9BYT3 whole entry): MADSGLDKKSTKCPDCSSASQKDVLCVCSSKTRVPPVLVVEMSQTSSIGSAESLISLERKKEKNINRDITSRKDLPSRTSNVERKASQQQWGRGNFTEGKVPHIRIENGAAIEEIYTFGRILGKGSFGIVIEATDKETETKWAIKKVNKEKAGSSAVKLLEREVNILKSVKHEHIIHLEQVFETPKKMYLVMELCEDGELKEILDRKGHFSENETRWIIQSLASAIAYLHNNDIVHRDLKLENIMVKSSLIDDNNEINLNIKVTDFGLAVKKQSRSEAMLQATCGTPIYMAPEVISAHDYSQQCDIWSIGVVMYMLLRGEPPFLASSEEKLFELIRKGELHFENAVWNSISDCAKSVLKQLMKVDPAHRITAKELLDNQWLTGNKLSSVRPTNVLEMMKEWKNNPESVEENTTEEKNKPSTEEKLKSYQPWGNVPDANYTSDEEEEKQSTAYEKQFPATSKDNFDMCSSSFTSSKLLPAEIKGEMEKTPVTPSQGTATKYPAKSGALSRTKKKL

Chain of GRK6(h) (P43250 whole entry): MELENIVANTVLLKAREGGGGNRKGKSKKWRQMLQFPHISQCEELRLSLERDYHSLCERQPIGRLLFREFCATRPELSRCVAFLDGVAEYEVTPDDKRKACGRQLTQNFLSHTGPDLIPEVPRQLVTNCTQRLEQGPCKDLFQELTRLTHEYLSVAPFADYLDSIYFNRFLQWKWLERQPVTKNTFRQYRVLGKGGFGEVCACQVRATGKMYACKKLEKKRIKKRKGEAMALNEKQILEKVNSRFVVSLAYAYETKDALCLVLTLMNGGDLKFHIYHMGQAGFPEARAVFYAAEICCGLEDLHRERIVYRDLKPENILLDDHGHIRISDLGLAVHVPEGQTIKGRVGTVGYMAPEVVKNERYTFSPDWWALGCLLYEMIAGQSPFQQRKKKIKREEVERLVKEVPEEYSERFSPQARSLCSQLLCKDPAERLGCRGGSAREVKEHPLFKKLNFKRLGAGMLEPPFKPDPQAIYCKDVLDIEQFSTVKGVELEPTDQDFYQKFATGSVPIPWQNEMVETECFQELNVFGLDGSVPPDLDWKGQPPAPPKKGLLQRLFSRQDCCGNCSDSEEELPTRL
Chain of IRR(h) (P14616 27-1297): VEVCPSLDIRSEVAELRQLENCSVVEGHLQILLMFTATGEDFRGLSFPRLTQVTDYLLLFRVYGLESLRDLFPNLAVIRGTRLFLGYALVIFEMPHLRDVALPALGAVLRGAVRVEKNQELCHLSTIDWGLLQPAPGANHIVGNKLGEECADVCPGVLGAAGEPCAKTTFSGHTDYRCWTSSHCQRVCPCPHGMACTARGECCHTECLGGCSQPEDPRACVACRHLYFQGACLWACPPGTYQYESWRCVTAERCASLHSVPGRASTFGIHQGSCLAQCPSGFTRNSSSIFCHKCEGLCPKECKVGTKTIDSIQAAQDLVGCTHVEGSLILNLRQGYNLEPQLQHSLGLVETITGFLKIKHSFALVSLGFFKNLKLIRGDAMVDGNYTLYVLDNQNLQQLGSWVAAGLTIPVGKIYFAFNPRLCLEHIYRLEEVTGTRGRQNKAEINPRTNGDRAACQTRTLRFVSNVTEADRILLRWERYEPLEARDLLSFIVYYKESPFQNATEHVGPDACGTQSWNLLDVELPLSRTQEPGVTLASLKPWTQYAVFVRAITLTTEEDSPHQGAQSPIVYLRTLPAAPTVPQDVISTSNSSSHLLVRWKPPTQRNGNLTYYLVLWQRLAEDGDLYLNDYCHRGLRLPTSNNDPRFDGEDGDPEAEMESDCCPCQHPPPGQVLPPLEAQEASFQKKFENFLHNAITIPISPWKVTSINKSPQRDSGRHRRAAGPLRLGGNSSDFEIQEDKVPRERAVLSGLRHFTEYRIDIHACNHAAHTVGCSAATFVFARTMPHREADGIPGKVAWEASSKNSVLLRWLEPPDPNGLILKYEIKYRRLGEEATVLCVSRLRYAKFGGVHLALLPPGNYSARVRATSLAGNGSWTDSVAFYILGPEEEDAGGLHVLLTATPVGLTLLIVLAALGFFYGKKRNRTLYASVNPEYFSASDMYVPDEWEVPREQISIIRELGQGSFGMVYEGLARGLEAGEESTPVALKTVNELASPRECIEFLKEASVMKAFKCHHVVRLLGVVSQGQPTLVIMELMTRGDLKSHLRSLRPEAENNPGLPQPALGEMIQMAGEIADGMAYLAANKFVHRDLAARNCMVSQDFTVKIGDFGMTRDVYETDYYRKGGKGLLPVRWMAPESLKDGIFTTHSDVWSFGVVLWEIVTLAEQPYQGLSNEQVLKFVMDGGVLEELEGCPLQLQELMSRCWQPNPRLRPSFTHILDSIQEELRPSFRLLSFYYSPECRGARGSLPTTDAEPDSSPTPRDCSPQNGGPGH
Chain of PASK(h) (Q96RG2 whole entry): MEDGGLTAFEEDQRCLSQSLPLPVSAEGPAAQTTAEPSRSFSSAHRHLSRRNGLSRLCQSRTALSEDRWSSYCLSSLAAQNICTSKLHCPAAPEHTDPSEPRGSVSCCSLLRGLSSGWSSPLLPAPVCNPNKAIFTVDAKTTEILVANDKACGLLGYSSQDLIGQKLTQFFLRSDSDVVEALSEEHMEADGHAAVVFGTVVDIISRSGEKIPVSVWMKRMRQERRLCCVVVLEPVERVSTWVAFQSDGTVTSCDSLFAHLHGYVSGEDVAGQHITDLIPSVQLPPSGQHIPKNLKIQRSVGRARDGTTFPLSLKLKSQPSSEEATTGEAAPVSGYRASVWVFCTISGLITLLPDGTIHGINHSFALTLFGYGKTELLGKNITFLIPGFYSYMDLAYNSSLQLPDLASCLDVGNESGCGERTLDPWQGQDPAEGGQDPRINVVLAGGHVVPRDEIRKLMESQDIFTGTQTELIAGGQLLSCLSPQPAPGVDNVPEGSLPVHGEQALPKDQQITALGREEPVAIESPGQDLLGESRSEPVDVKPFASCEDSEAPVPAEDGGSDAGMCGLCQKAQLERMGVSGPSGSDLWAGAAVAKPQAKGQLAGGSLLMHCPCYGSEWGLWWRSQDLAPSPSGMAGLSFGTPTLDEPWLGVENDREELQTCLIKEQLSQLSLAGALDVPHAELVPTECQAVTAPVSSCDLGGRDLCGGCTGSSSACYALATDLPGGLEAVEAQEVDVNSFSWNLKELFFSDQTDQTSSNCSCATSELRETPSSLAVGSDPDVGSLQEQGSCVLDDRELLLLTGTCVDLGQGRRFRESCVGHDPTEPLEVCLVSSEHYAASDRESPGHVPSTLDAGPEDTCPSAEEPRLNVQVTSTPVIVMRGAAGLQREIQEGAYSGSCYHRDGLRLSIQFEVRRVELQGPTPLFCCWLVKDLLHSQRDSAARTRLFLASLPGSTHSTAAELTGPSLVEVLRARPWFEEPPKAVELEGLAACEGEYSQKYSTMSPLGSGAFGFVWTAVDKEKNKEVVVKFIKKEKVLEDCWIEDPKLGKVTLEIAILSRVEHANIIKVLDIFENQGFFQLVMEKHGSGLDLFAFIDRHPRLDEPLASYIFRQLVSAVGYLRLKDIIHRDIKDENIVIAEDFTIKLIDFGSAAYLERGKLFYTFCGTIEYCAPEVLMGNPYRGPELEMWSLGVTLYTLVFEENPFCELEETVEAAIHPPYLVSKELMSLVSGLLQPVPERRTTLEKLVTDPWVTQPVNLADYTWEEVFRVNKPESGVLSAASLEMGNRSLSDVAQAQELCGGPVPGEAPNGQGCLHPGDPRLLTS
Chain of CK2(h) (P68400 whole entry): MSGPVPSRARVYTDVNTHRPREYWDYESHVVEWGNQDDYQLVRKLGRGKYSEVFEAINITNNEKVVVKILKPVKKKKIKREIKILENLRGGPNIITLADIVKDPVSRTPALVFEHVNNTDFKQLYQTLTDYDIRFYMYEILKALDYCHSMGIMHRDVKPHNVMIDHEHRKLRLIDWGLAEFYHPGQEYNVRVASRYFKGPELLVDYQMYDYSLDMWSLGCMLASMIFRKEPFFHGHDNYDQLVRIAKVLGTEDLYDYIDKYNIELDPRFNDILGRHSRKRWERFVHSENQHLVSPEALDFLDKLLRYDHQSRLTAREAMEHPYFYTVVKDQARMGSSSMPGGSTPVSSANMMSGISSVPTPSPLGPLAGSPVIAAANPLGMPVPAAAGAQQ
Chain of CK2(h) (P67870 whole entry partner): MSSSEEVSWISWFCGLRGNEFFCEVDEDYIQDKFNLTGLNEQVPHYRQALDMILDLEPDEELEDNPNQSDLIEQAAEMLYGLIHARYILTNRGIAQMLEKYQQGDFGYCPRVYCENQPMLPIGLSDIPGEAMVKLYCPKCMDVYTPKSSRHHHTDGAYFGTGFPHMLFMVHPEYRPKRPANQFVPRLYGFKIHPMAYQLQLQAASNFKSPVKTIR
Chain of MAPKAP-K3(h) (Q16644 whole entry): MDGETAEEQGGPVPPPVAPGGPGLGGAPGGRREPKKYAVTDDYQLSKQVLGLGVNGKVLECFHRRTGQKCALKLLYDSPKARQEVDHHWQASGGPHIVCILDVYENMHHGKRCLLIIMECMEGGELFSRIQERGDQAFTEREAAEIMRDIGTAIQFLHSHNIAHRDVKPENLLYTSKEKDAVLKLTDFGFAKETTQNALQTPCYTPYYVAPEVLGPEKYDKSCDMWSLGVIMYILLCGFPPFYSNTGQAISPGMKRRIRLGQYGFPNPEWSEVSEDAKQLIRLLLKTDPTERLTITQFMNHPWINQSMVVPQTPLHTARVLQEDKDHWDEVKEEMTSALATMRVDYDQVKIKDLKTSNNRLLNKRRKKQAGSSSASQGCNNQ

Row | Substance | % activity (CK2(h)) [%] | % activity (DMPK(h)) [%] | % activity (EphA7(h)) [%] | % activity (FGFR3(h)) [%] | % activity (Fms(h)) [%] | % activity (GRK6(h)) [%] | % activity (Haspin(h)) [%] | % activity (IGF-1R(h), activated) [%] | % activity (IRR(h)) [%] | % activity (MAPKAP-K3(h)) [%] | % activity (Met(Y1248D)(h)) [%] | % activity (NEK3(h)) [%] | % activity (PASK(h)) [%] | % activity (STK33(h)) [%] | further results
1 | H-YARAAARQARAKALARQLGVAA-OH [MMI-0100] |  |  |  |  |  |  |  |  |  |  |  |  |  |  | activity at 100 µM (CK2(h)): 90%; activity at 100 µM (DMPK(h)): 60%; activity at 100 µM (EphA7(h)): 193%; activity at 100 µM (FGFR3(h)): 73%; activity at 100 µM (Fms(h)): 89%; activity at 100 µM (GRK6(h)): 131%; activity at 100 µM (Haspin(h)): 127%; activity at 100 µM (IGF-1R(h), activated): 126%; activity at 100 µM (IRR(h)): 85%; activity at 100 µM (MAPKAP-K3(h)): 27%; activity at 100 µM (Met(Y1248D)(h)): 87%; activity at 100 µM (NEK3(h)): 100%; activity at 100 µM (PASK(h)): 81%; activity at 100 µM (STK33(h)): 99%
2 | HRRIKAWLKKIKALARQLGVAA (Mammalian) [MMI-0500] | 93 | 12 | 189 | 10 | 14 | 174 | 25 | 45 | 10 | 9 | 218 | 20 | 9 | 16 | 
3 | YARAAARQARAKALNRQLGVA (Mammalian) [MMI-0200] | 83 | 66 | 220 | 208 | 92 | 132 | 71 | 94 | 69 | 39 | 118 | 100 | 60 | 98 | 
